Experimental findings from patent US20070077603A1 (published 2007) are described below.

In experiment [1] the target is FXa/FVa (prothrombinase components) (UniProt P00742). In words: cell-based or functional assay.
In experiment [2] the target is FXa/FVa (prothrombinase components) (UniProt P00742 41-179; P00742 235-488; P12259 29-737; P12259 1574-2224). The experiment can be described thus: cell-based or functional assay.
A further experiment concerns the target T1, C4b-binding protein (human, UniProt P04003 49-597; P20851 18-252).
T1 construct: Endogenous plasma protein; also called C4BP
T1 sequence (looked up) 1: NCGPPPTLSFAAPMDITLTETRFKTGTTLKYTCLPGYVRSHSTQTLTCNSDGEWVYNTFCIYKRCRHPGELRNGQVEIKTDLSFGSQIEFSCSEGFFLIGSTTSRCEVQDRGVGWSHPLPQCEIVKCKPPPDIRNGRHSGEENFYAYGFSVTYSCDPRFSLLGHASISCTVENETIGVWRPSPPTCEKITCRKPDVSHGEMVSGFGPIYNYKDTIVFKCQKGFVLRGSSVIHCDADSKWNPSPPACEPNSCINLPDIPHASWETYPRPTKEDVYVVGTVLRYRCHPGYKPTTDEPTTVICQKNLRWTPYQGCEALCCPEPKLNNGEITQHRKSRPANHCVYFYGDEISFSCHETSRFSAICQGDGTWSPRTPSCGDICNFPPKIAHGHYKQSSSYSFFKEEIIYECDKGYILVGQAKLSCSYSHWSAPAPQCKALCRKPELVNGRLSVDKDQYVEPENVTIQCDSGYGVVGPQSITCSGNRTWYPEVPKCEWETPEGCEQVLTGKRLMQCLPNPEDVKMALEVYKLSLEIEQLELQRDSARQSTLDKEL
T1 sequence (looked up) 2: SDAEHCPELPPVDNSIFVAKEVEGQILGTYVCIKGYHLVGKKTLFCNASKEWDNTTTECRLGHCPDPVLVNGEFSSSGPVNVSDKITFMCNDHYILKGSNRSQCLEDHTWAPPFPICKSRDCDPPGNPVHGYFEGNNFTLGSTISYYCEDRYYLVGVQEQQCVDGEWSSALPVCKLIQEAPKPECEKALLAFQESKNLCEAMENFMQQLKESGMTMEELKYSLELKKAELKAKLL
The experiment can be described thus: complex in hirudin-plasma, Superose-6 gel filtration and immunoblot from native PAGE. The procedure:
Gel filtration - - - Purified protein S preparations or hirudin-plasma (200 μl ) were fractionated on a 1×30 cm Superose-6 HR column using Fast Performance Liquid Chromatography (Amersham-Pharmacia, Piscattaway, N.J.) at a flow rate of 0.4 ml/min in Hepes-buffered saline (HBS). Hirudin and citrated plasmas (300 ul) were each mixed with 700 μl of 50 mM benzamidine and fractionated on a 1.6×60 cm Sephacryl-300 column at a flow rate of 0.4 ml/min in Tris-buffered saline. Fractions were analyzed for protein S antigen by ELISA, for protein S multimers by native PAGE, and for PS-direct. ELISAs were also performed on the fractions for FV, FX, and C4BP antigens
Fractionation of plasma - - - When hirudin-plasma was gel-filtered on Superose-6 (FIG. 8A), forms that could be identified by immunoblotting from native PAGE were PS-C4BP complexes (fractions 31-39), followed by putative protein S multimers of three types (arrows), and monomeric protein S (fractions 47-54). A smeared band near the void volume marked with ? […] The original quantity of multimers may have been greater than seen in FIG. 8A, since there was evidence of dissociation to monomer in most fractions. […]
A general note: SEC sorts molecules by how far they enter the pores of the column.

A further experiment deals with T2, recombinant human Gas6 (human, UniProt Q14393 49-678, limits assumed).
T2 construct: Control vitamin K-dependent protein on the ligand blot (200 ng)
T2 sequence (looked up): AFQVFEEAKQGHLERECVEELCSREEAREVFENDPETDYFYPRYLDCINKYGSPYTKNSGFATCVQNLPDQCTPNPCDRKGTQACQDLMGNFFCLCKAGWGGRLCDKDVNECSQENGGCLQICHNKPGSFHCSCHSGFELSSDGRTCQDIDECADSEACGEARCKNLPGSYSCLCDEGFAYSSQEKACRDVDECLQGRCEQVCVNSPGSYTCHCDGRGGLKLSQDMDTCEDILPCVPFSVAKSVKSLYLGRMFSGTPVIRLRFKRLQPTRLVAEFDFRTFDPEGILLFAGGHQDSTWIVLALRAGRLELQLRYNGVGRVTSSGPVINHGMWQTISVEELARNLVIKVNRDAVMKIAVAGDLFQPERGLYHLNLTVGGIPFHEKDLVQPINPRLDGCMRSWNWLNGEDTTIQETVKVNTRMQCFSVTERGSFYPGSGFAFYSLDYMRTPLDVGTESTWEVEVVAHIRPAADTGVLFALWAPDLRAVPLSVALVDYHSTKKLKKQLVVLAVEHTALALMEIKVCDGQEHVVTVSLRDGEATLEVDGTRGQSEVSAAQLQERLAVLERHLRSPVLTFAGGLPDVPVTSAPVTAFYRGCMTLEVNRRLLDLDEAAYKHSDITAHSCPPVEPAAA
The experiment can be described thus: ligand blot from native 10% PAGE, biotin-DIP-FXa, streptavidin-HRP. The procedure: (§1) For ligand blotting, FXa was treated with diisoproylfluorophosphate until >95% of its amidolytic activity was lost and then biotinylated as described (Heeb, et al. (1994) Proc. Natl. Acad. Sci. USA 91, 2728-2732). Blots containing 200 ng of protein S or control proteins were incubated with 3 μg/ml of this DIP-FXa for 1 h, followed by streptavidin-horse radish peroxidase (Pierce), chemiluminescent substrate and film exposure.
(§2) Ligand blotting of DIP-FXa to protein S monomers and dimers - - - Biotin-DIP-FXa could ligand blot to both protein S monomers and dimers, but not to two other vitamin K-dependent proteins (FIG. 3). DIP-FXa ligand blotted to monomers and multimers of protein S on native 10% PAGE, but not to human protein C or recombinant human Gas6. […] Note that protein S no. 1 has few monomers compared to protein S no. 2,and protein S no. 2 is <50% monomeric. (see FIG. 4).

In the next experiment the target is T3, human protein C (human, UniProt P04070 43-197; P04070 200-461).
T3 construct: Control vitamin K-dependent protein on the ligand blot (200 ng)
T3 sequence (P04070 43-197, chain 1 of 2): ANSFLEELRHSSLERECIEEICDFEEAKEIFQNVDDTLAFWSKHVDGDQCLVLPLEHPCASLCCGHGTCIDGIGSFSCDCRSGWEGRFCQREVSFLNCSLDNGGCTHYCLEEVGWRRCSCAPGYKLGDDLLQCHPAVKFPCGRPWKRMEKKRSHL
T3 sequence (P04070 200-461, chain 2 of 2): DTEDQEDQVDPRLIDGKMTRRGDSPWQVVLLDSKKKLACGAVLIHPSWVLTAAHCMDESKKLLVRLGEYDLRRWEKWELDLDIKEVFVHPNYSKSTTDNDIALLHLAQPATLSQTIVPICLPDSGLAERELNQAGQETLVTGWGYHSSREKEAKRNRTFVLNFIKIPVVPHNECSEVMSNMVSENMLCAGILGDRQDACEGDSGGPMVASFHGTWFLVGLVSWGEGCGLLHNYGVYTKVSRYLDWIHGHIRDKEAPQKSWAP
Described as above. As for the experimental part:
as §1, §2

Sequence of FXa/FVa (prothrombinase components) (UniProt P00742 41-179; P00742 235-488; P12259 29-737; P12259 1574-2224) (P12259 29-737 limits assumed, chain 3 of 2): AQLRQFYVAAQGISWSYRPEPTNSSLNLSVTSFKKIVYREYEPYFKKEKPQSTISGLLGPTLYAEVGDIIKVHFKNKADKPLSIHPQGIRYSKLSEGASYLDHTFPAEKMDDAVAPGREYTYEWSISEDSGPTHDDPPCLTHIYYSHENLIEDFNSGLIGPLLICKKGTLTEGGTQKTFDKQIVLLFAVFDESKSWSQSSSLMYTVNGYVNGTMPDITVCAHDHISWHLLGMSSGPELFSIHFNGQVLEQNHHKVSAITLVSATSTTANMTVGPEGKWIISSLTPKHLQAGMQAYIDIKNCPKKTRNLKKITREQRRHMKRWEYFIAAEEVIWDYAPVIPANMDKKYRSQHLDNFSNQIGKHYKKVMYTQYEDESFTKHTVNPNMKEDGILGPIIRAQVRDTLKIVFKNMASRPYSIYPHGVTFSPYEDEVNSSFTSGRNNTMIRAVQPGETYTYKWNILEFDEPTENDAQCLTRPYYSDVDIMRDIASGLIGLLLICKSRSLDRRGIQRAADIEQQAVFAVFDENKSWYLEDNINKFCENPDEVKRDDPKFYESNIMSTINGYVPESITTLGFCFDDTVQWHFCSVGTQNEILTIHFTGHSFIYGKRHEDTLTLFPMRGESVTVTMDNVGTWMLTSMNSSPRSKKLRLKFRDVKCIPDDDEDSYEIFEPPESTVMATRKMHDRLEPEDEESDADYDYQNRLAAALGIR
Sequence of FXa/FVa (prothrombinase components) (UniProt P00742 41-179; P00742 235-488; P12259 29-737; P12259 1574-2224) (P12259 1574-2224 limits assumed, chain 4 of 2): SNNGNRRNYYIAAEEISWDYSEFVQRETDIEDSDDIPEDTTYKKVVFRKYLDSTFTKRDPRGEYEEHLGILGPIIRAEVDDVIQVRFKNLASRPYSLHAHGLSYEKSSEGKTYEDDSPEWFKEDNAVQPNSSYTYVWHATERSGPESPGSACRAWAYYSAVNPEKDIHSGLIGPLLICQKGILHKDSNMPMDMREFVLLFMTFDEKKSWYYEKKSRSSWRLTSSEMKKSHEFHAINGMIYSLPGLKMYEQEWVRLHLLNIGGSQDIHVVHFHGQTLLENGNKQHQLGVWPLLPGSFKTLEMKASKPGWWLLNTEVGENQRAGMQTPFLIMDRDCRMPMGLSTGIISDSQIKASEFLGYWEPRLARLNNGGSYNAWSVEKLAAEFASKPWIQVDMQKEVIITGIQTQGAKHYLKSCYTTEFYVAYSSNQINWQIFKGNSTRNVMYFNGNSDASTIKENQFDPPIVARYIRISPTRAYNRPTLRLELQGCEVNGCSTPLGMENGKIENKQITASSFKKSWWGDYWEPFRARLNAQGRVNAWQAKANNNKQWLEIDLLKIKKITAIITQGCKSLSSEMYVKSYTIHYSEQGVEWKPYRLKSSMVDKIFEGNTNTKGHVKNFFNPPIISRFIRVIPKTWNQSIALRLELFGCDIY
Sequence of FXa/FVa (prothrombinase components) (UniProt P00742) (P12259 29-737 limits assumed, chain 3 of 2): as the sequence (P12259 29-737 limits assumed, chain 3 of 2) above
Sequence of FXa/FVa (prothrombinase components) (UniProt P00742) (P12259 1574-2224 limits assumed, chain 4 of 2): as the sequence (P12259 1574-2224 limits assumed, chain 4 of 2) above

Regarding “protein S forms >Trimer (from UniProt P07225 42-676)”, in experiment [1], the Inhibition of prothrombinase, IC50 @ 25 µM PL, nM (total moles of protein S monomeric subunits) was determined as 111 nM and the Inhibition of prothrombinase, IC50 @ 25 µM PL, nM of specific form amounted to 28 nM.

In experiment [1], “protein S Dimer-Trimer fraction (from UniProt P07225 42-676)” returned an Inhibition of prothrombinase, IC50 @ 25 µM PL, nM (total moles of protein S monomeric subunits) of 116 nM and an Inhibition of prothrombinase, IC50 @ 25 µM PL, nM of specific form of 46 nM.

In experiment [1], “protein S Trimer (from UniProt P07225 42-676)” came in with an Inhibition of prothrombinase, IC50 @ 25 µM PL, nM (total moles of protein S monomeric subunits) of 113 nM and an Inhibition of prothrombinase, IC50 @ 25 µM PL, nM of specific form of 38 nM.

B1: protein S monomers (purified) (other, UniProt P07225 42-676, looked up)
chain: ANSLLEETKQGNLERECIEELCNKEEAREVFENDPETDYFYPKYLVCLRSFQTGLFTAARQSTNAYPDLRSCVNAIPDQCSPLPCNEDGYMSCKDGKASFTCTCKPGWQGEKCEFDINECKDPSNINGGCSQICDNTPGSYHCSCKNGFVMLSNKKDCKDVDECSLKPSICGTAVCKNIPGDFECECPEGYRYNLKSKSCEDIDECSENMCAQLCVNYPGGYTCYCDGKKGFKLAQDQKSCEVVSVCLPLNLDTKYELLYLAEQFAGVVLYLKFRLPEISRFSAEFDFRTYDSEGVILYAESIDHSAWLLIALRGGKIEVQLKNEHTSKITTGGDVINNGLWNMVSVEELEHSISIKIAKEAVMDINKPGPLFKPENGLLETKVYFAGFPRKVESELIKPINPRLDGCIRSWNLMKQGASGIKEIIQEKQNKHCLVTVEKGSYYPGSGIAQFHIDYNNVSSAEGWHVNVTLNIRPSTGTGVMLALVSGNNTVPFAVSLVDSTSEKSQDILLSVENTVIYRIQALSLCSDQQSHLEFRVNRNNLELSTPLKIETISHEDLQRQLAVLDKAMKAKVATYLGGLPDVPFSATPVNAFYNGCMEVNINGVQLDLDEAISKHNDIRAHSCPSVWKKTKNS
On to B1, for which, in experiment [2], the “Inhibition of prothrombinase, IC50 @ 25 µM PL, nM (total moles of protein S monomeric subunits)” value is 119 nM and the “Inhibition of prothrombinase, IC50 @ 25 µM PL, nM of specific form” value is 119 nM of specific form.

B2: protein S dimers (purified) (other, UniProt P07225 42-676, looked up)
chain: ANSLLEETKQGNLERECIEELCNKEEAREVFENDPETDYFYPKYLVCLRSFQTGLFTAARQSTNAYPDLRSCVNAIPDQCSPLPCNEDGYMSCKDGKASFTCTCKPGWQGEKCEFDINECKDPSNINGGCSQICDNTPGSYHCSCKNGFVMLSNKKDCKDVDECSLKPSICGTAVCKNIPGDFECECPEGYRYNLKSKSCEDIDECSENMCAQLCVNYPGGYTCYCDGKKGFKLAQDQKSCEVVSVCLPLNLDTKYELLYLAEQFAGVVLYLKFRLPEISRFSAEFDFRTYDSEGVILYAESIDHSAWLLIALRGGKIEVQLKNEHTSKITTGGDVINNGLWNMVSVEELEHSISIKIAKEAVMDINKPGPLFKPENGLLETKVYFAGFPRKVESELIKPINPRLDGCIRSWNLMKQGASGIKEIIQEKQNKHCLVTVEKGSYYPGSGIAQFHIDYNNVSSAEGWHVNVTLNIRPSTGTGVMLALVSGNNTVPFAVSLVDSTSEKSQDILLSVENTVIYRIQALSLCSDQQSHLEFRVNRNNLELSTPLKIETISHEDLQRQLAVLDKAMKAKVATYLGGLPDVPFSATPVNAFYNGCMEVNINGVQLDLDEAISKHNDIRAHSCPSVWKKTKNS
As for B2, in experiment [2], the “Inhibition of prothrombinase, IC50 @ 25 µM PL, nM (total moles of protein S monomeric subunits)” value was 109 nM and the “Inhibition of prothrombinase, IC50 @ 25 µM PL, nM of specific form” value was 54 nM of specific form.

B3: monomeric protein S in plasma (other, human, UniProt P07225 42-676, looked up)
chain: ANSLLEETKQGNLERECIEELCNKEEAREVFENDPETDYFYPKYLVCLRSFQTGLFTAARQSTNAYPDLRSCVNAIPDQCSPLPCNEDGYMSCKDGKASFTCTCKPGWQGEKCEFDINECKDPSNINGGCSQICDNTPGSYHCSCKNGFVMLSNKKDCKDVDECSLKPSICGTAVCKNIPGDFECECPEGYRYNLKSKSCEDIDECSENMCAQLCVNYPGGYTCYCDGKKGFKLAQDQKSCEVVSVCLPLNLDTKYELLYLAEQFAGVVLYLKFRLPEISRFSAEFDFRTYDSEGVILYAESIDHSAWLLIALRGGKIEVQLKNEHTSKITTGGDVINNGLWNMVSVEELEHSISIKIAKEAVMDINKPGPLFKPENGLLETKVYFAGFPRKVESELIKPINPRLDGCIRSWNLMKQGASGIKEIIQEKQNKHCLVTVEKGSYYPGSGIAQFHIDYNNVSSAEGWHVNVTLNIRPSTGTGVMLALVSGNNTVPFAVSLVDSTSEKSQDILLSVENTVIYRIQALSLCSDQQSHLEFRVNRNNLELSTPLKIETISHEDLQRQLAVLDKAMKAKVATYLGGLPDVPFSATPVNAFYNGCMEVNINGVQLDLDEAISKHNDIRAHSCPSVWKKTKNS
notes: mature; also called monomers
In the case of B3, in the experiment with C4b-binding protein, the binding result is “binds”.

B4: Biotin-DIP-FXa (enzyme)
chain 1: ANSFLEEMKKGHLERECMEETCSYEEAREVFEDSDKTNEFWNKYKDGDQCETSPCQNQGKCKDGLGEYTCTCLEGFEGKNCELFTRKLCSLDNGDCDQFCHEEQNSVVCSCARGYTLADNGKACIPTGPYPCGKQTLER
chain 2: IVGGQECKDGECPWQALLINEENEGFCGGTILSEFYILTAAHCLYQAKRFKVRVGDRNTEQEEGGEAVHEVEVVIKHNRFTKETYDFDIAVLRLKTPITFRMNVAPACLPERDWAESTLMTQKTGIVSGFGRTHEKGRQSTRLKMLEVPYVDRNSCKLSSSFIITQNMFCAGYDTKQEDACQGDSGGPHVTRFKDTYFVTGIVSWGEGCARKGKYGIYTKVTAFLKWIDRSMKTRGLPKAKSHAPEVITSSPLK
modifications: treated with diisoproylfluorophosphate until >95% of its amidolytic activity was lost and then biotinylated; biotinylated (sites not given)
notes: Used at 3 µg/ml as probe in ligand blots; also called FXa treated with diisopropylfluorophosphate and biotinylated
For the molecule B4, the binding result in the experiment with recombinant human Gas6 and with human protein C was “no binding” in each case.
